Where “and” joins values, the source holds several entries; their conditions need not be identical. Equal values may be shown once.
What was measured:
[1] = molecular target: Catechol 1,2-dioxygenase from Pseudomonas stutzeri GOM2 (Pseudomonas stutzeri GOM2); test: SEC; HiLoad 26/60 Superdex 200, 50 mM glycine-NaOH pH 8.5, no NaCl; 500 uL of protein at 20 mg/mL; mass from calibration with standard proteins
[2] = molecular target: Catechol 1,2-dioxygenase from Pseudomonas stutzeri GOM2 (Pseudomonas stutzeri GOM2); test: SEC + other: dynamic light scattering; 50 mM glycine-NaOH pH 8.5 with 700 mM NaCl (seawater salinity); SEC on Superdex 200; DLS at 1 mg/mL, 40 °C
[3] = molecular target: Catechol 1,2-dioxygenase from Pseudomonas stutzeri GOM2 (Pseudomonas stutzeri GOM2); test: native gel or EMSA; 10% acrylamide gel under non-denaturing conditions, no SDS or reducing agents; the dimer and trimer samples from SEC mixed and loaded together

Catechol 1,2-dioxygenase from Pseudomonas stutzeri GOM2 (enzyme)
stoichiometry N [1]: 3 | stoichiometry N [2]: 2 | stoichiometry N [3]: 2 and 3
